Source: publication doi:10.1101/2023.06.24.546380

Key:
[1] = molecular target: Zonula occludens scaffold protein ZO1 (UniProt Q07157); test: partitioning of actin into ZO1 surface condensates on supported lipid bilayers
[2] = molecular target: intracellular domain of the tight junction receptor JAM-A (UniProt Q9Y624)
Sequence of UniProt Q9Y624 (Q9Y624 28-299): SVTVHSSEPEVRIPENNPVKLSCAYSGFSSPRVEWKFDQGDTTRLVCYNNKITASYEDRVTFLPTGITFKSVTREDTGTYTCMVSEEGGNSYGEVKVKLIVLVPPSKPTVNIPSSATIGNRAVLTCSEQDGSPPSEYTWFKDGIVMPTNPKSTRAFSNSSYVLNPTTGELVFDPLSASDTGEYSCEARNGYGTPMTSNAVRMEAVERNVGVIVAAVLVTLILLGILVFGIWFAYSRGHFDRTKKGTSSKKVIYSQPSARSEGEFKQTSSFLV

Sequence of UniProt Q07157 (Q07157 whole entry, the tested form may be a part): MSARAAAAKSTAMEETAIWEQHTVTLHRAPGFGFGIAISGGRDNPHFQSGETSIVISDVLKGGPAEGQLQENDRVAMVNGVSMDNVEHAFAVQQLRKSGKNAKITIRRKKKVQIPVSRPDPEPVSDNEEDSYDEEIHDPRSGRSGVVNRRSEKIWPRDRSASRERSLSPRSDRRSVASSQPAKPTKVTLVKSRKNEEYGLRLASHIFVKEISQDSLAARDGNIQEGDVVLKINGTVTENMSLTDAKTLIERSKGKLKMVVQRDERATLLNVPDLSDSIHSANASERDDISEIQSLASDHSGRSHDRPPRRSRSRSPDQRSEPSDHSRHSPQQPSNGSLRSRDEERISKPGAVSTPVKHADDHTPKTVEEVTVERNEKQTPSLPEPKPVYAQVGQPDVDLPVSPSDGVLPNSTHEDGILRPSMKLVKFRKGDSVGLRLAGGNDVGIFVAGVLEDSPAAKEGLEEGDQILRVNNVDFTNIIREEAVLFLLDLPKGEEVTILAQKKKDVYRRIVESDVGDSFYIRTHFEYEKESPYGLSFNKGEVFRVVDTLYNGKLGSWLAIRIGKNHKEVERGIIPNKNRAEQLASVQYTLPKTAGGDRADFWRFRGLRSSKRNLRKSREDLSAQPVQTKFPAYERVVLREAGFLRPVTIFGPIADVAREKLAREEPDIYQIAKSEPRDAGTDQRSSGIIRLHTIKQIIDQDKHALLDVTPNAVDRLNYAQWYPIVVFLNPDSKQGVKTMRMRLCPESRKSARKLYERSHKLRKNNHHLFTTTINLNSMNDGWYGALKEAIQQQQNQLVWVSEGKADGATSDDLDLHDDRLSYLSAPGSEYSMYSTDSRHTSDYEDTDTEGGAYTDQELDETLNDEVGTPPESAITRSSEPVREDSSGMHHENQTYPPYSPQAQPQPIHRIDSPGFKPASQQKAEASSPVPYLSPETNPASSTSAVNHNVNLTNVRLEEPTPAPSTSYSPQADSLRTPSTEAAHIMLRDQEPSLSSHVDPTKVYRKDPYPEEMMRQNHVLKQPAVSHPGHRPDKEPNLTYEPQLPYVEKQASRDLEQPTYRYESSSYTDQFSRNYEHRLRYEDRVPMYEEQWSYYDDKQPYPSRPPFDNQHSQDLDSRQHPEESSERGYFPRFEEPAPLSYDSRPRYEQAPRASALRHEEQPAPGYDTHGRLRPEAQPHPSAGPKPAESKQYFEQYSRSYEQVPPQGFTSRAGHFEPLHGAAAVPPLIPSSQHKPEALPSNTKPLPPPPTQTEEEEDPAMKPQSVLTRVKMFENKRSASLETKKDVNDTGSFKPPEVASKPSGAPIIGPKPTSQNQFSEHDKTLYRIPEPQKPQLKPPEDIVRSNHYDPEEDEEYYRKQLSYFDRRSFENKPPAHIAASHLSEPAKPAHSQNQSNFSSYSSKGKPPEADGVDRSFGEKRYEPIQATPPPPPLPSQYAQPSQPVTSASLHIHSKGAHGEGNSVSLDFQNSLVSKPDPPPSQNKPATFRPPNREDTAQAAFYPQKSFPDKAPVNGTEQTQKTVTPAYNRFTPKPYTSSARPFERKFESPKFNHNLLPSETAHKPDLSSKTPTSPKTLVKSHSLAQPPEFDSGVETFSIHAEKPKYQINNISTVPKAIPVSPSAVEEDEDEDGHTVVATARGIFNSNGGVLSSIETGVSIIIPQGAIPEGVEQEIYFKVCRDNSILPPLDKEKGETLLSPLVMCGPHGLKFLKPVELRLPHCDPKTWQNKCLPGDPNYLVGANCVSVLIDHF

## G-actin-Alexa Fluor 647 (from UniProt P68135 1-377) (natural protein)
[1]
  fold enrichment in the surface condensates: 5 fold

## Zonula occludens scaffold protein ZO1 (from UniProt Q07157 1-1748) (natural protein)
[2]
  fold enrichment in the dense ZO1 phase: 2 fold
